Data reported in doi:10.1101/2025.08.30.673231.
Values joined by “and” are separate entries in the source; they are usually repeats but may differ in a detail not shown here. Equal values may be shown once.

Columns and labels:
[1] = biological target: 6xHis-GST-tagged Pichia pastoris Pex5 full length (Pichia pastoris) (UniProt P33292); assay: BLI
[2] = biological target: Pichia pastoris Pex5 full length (tag removed) (Pichia pastoris) (UniProt P33292); assay: ITC
[3] = biological target: Pichia pastoris Pex5 CTD (residues 259-576, tag removed) (Pichia pastoris) (UniProt P33292); assay: SEC-SAXS
[4] = biological target: Pichia pastoris Pex5 NTD (residues 1-276, tag removed) (Pichia pastoris) (UniProt P33292); assay: SEC-SAXS
[5] = biological target: Pichia pastoris Pex5 full length (tag removed) (Pichia pastoris) (UniProt P33292); assay: SEC-SAXS
[6] = biological target: 6xHis-GST-tagged Pichia pastoris Pex5 CTD (residues 259-576) (Pichia pastoris) (UniProt P33292); assay: BLI
[7] = biological target: 6xHis-GST-tagged Pichia pastoris Pex5 NTD (residues 1-276) (Pichia pastoris) (UniProt P33292); assay: BLI
[8] = biological target: Pex5 NTD variants (the Pex5 single E57R mutant and the double mutants R45E/R48E and M61A/F64A); assay: BLI

Row | Kd [1] [nM] | stoichiometry N [2] | stoichiometry N [3] | stoichiometry N [4] | stoichiometry N [5] | Kd [6] [µM] | Kd [7] [nM] | fold increase in KD against Pex5 NTD WT [8] | Substance
1 | 478 | – | – | – | – | – | – | – | Pichia pastoris Pex8 (ΔPTS1) (domain or fragment)
2 | 78 | 1 | 1 | 1 | 1 | 4.4 | 683 | 6 fold and 8 fold | Pichia pastoris Pex8 (residues 33-713), N-terminally truncated (domain or fragment)
